# “Also recorded” adds a separate entry of the source.
# T1: mCherry-tagged Bcr-Abl (Homo sapiens, UniProt P00519+P11274)
# T1 construct: expressed in transfected cells; host or cells: Cos-7
# T1 sequence (P11274 1-72 limits assumed): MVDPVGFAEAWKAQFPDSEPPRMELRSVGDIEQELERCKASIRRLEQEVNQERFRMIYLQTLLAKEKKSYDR
# Experiments:
# [1] = test system: parental Ba/F3 cells; test: Proliferation of transfected parental Ba/F3 cells (MTS assay); assay type: cell-based, mouse; settings: for proliferation of parental Ba/F3 cells: MTS assay at 72 and 96 h, CCmut3 vs EV
# Procedure: Stable recombinant Ba/F3 cells transduced with wild type p210 BCR-ABL1 (Daley, G. Q., et al. (1991) Proc. Natl. Acad. Sci. U.S.A. 88, 11335-11338), the kinase domain mutants p210^T315I p210^[…], or the compound mutant p210^E255V/T315I were as previously described (La Rosee, P., et al. (2002) Cancer Res. 62, 7149-7153; O'Hare, T., et al. (2004) Blood 104, 2532-2539). These cells were cultured in RPMI with 10% FBS, 1% penicillin, streptomycin, glutamine, and 0.1% gentamycin (RPMI1640). Additionally 0.1% MycoZap™ (Lonza Bio, Basel, Switzerland) was added to prevent mycoplasma contamination. The non-transduced parental Ba/F3 cell line was grown in RPMI1640 supplemented with 20% WEHI-3B conditioned medium as a source of murine IL-3 (Dexter, T. M., et al. (1980) J. Exp. Med. 152, 1036-1047). Ba/F3 cells were transfected with plasmid DNA using the Amaxa nucleofection system (Lonza Bio), following the manufacturer's instructions. Cells were sorted on a BD FACSAria cytometer (BD Biosciences, San Jose, Calif.) for double-positive cells expressing mCherry and GFP then returned to RPMI1640 for subsequent experiments.
# Cell proliferation was assessed using the CellTiter 96® AQueous One Solution Cell Proliferation Assay (MTS assay, Promega) according to manufacturer instructions. Briefly, 5,000 viable cells were added to a single well in 96-well plate in 100 μL RPMI1640. Three independent samples were seeded in duplicate for each time point. […] In some experiments, cell proliferation was assessed using a Neubauer chamber and trypan blue dye exclusion.
# Stable Ba/F3 cells transduced with native (p210) BCR-ABL1, the kinase domain mutants BCR-ABL1T315I, BCR-ABL1E255V, or the compound mutant BCR-ABL1E255V/T315I were cultured. […]
# Cell proliferation was assessed using a […] viability assay (MTS assay) utilizing CellTiter 96® AQueous One Solution Cell Proliferation Assay (Promega) according to manufacturer instructions. […] Cell growth was assessed by MTS assay at 72 and 96 h. […] In patient sample experiments, cell proliferation was assessed by trypan blue exclusion.
# [2] = target: T1, mCherry-tagged Bcr-Abl; test: Colocalization analysis in Cos-7 cells; assay type: cell-based; settings: EGFP-tagged CC^mut3 co-transfected with mCherry-tagged Bcr-Abl
# Procedure: Next, the ability of CC^mut3 to bind to BCR-ABL in live cells was analyzed (FIG. 8B). Colocalization analysis was performed by co-transfecting mCherry-tagged Bcr-Abl and EGFP-tagged CC^mut3 into Cos-7 cells.
# [3] = test system: CD34+ cells from newly diagnosed CML patients; test: Proliferation of lentivirus-infected CD34+ cells from newly diagnosed CML patients; assay type: cell-based, human; settings: for cell growth, in words: lentiviral CCmut3 compared with EV cells treated with 2.5 μM imatinib
# Procedure: Mononuclear cells (MNCs) were separated from the peripheral blood of patients with newly diagnosed or therapy-resistant CML with a documented T315I mutation, using Ficoll (Nycomed, Oslo, Norway). Isolation of the CD34^+ fraction was done on an autoMACS Pro (Miltenyi Biotech). CD34^+ progenitors were maintained at 1×10^6 cells/mL in RPMI1640 containing 20% FBS and 5 μL/mL StemSpan CC100 (Stem Cell Technologies, Vancouver, BC, Canada). Cells were infected with lentivirus at a multiplicity of infection (MOI) of 5 for each construct at 24 and 48 hours following harvest (fresh cells) or thaw (frozen cells). Cells were sorted on a BD FACSAria cytometer after 72 h, and GFP-positive cells were returned to culture medium for future experiments. All patients gave their informed consent in accordance with the Declaration of Helsinki, and all studies with human specimens were approved by The University of Utah Institutional Review Board (IRB).
# Cell proliferation was assessed using the CellTiter 96® AQueous One Solution Cell Proliferation Assay (MTS assay, Promega) according to manufacturer instructions. […] In some experiments, cell proliferation was assessed using a Neubauer chamber and trypan blue dye exclusion.
# Mononuclear cells (MNCs) from peripheral blood of patients with newly diagnosed or TKI-resistant CML were separated by Ficoll (Nycomed, Oslo, Norway), and the CD34+ fraction was isolated using an autoMACS Pro Separator (Miltenyi Biotech, San Diego, Calif., USA). Purity was determined to be >90% by flow cytometric analysis using a Guava 6HT flow cytometer (Millipore, Billerica, Mass., USA). […]
# 293FT cells (Life Technologies, Grand Island, N.Y., USA) were grown in DMEM with 10% FBS, 100 U/ml penicillin-streptomycin, 2 mM L-glutamine, 0.1 mM MEM-non-essential amino acids, and 1 mM sodium pyruvate (Life Technologies, Grand Island, N.Y., USA). […] Lentiviral titers were determined. […]
# Cell proliferation was assessed using a […] viability assay (MTS assay) utilizing CellTiter 96® AQueous One Solution Cell Proliferation Assay (Promega) according to manufacturer instructions. […]
molecule,measurement,setting,value
"CCmut3: modified Bcr-Abl coiled-coil domain (residues 1-72) with mutations C38A, K39E, S41R, L45D, E48R, Q60E (protein) MVDPVGFAEAWKAQFPDSEPPRMELRSVGDIEQELERAEARIRRDEQRVNQERFRMIYLETLLAKEKKSYDR",proliferation of parental Ba/F3 cells,[1],not affected; also recorded: No difference
same,proliferation of parental Ba/F3 cells,[1]; listed as CC^mut3,not affected; also recorded: No difference
same,toxicity in BCR-ABL1-negative cells,"[1]; parental Ba/F3 cells, FIGS. 38a, c, e (proliferation, apoptosis, colony formation)",no measurable toxicity
same,intracellular colocalization with BCR-ABL (Costes' coefficient),[2],intracellular colocalization
same,"cell growth, in words",[3],significant reduction compared to inhibition by imatinib
same,"cell growth, in words",[3]; listed as CC^mut3,considerably more pronounced reduction of growth than observed with IM
same,reduction of cell proliferation/growth,"[3]; lentiviral CCmut3 vs EV, trypan blue exclusion",more than 2 fold

# Reference: patent US10494417B2, “Peptide inhibitors of BCR-ABL oligomerization” (University of Utah Research Foundation, priority 2014, dated 2019)
